Assay results from publication doi:10.1101/2023.05.22.541649.

What was measured:
[1] = target: GFP-CENP-T^1–242–I3-01 (human) (UniProt Q96BT3); assay: affinity purification with mass spectrometry
[2] = target: GFP-CENP-T^1–242^/3D-I3-01 (human) (UniProt Q96BT3); assay: fluorescence intensity of single particles
[3] = target: GFP-CENP-T^1–242^/3D-I3-01 (human) (UniProt Q96BT3); assay: single-molecule TIRF binding assay; conditions: scale: NDC80^Bonsai molecules per GFP-CENP-T^1–242^/3D molecule
[4] = target: GFP-CENP-T^1–242^/3D (human) (UniProt Q96BT3); assay: single-molecule TIRF binding assay; conditions: scale: NDC80^Bonsai complexes per GFP-CENP-T^1–242^/3D molecule
GFP-I3-01 = assay: fluorescence intensity of single particles
GFP-I3-01 (recombinant) = assay: fluorescence intensity of single particles
[5] = target: GFP-CENP-T^1–242–I3-01 (human) (UniProt Q96BT3); assay: fluorescence intensity of single particles

“MIS12 complex (from UniProt Q9H081 1-205)” gave a fold more per CENP-T molecule than with monomeric GFP-CENP-T^1–242 [1] of 5.4 fold.
Substance “GFP-CENP-T^1–242^/3D-I3-01 (from UniProt Q96BT3 1-242)” has a stoichiometry N (molecules per complex) [2] of 66.
Work on GFP-tagged NDC80^Bonsai complex yielded a stoichiometry N [3] of 2.2 and a stoichiometry N [4] of 0.28.
GFP-I3-01 was tested, and the stoichiometry N (GFP molecules per oligomer) (GFP-I3-01) was 51.
For “NDC80 complex (from UniProt O14777 1-642; Q8NBT2 1-197; Q9HBM1 1-224)”, the fold more per CENP-T molecule than with monomeric GFP-CENP-T^1–242 [1] was 5.6 fold.
GFP-I3-01 (recombinant) showed a stoichiometry N (GFP molecules per oligomer) (GFP-I3-01 (recombinant)) of 44.
“KNL1 complex (from UniProt Q8NG31 1-2342)” showed a fold more per CENP-T molecule than with monomeric GFP-CENP-T^1–242 [1] of 2.7 fold.
With “GFP-CENP-T^1–242–I3-01 (from UniProt Q96BT3 1-242)” the stoichiometry N (GFP molecules per oligomer) [5] was 41.
